According to article PMC8144621, “A two-hybrid system reveals previously uncharacterized protein–protein interactions within the Helicobacter pylori NIF iron–sulfur maturation system” (Scientific Reports, 2021):

Assays:
[1] = biological target: T1, ApbC-(His)6, purified recombinant (Helicobacter pylori strain 26695, UniProt O24999 1-368); assay: cross-linking; purified proteins (15 µM) incubated alone or together for 60 min at 25 °C with 10 mM dimethyl suberimidate (DMS), no ATP; SDS 4-20% gradient PAGE, Coomassie; settings: both partners purified
T1 construct: H. pylori strain 26695 ApbC/HP0207, whole native hp0207 (apbC) ORF without its stop codon, cloned NdeI-XhoI in pET21b (pET-ApbC); predicted mass with tag 41.1 kDa; The name ApbC-(His)6 and the cloning without stop codon in pET21b put the tag at the C-terminus; the methods of the cross-linking call the protein 'native ApbC'; also called hexahistidine tagged-ApbC^WT; source: E. coli BL21 RIL, …
T1 sequence (looked up): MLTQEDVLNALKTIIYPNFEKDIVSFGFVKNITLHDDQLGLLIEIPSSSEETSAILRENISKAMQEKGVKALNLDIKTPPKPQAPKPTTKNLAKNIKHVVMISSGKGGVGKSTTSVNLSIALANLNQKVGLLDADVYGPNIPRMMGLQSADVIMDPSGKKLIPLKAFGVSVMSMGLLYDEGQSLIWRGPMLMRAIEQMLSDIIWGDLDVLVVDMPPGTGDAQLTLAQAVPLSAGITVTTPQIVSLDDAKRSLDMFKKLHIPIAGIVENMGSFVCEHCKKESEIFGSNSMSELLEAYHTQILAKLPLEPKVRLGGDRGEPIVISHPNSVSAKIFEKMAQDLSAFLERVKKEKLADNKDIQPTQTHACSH

[2] = biological target: the molecule itself; assay: as above

B1: Nfu (HP1492), purified recombinant (natural protein, Helicobacter pylori, UniProt O26025 1-89, looked up)
chain: MIEFSDEDLQKPVRIVIEKIRPYLLKDGGNIEVLGVKSMKIYVALEGACKTCSSSKITLKNVIERQLKMDIHPNLEVVCLENAKEFDKL
notes: H. pylori Nfu/HP1492; also called recombinant Nfu; HpNfu
B1 was tested, and the binding result [1] was “binds” and the “stoichiometry N” value [2] was 2.
